Measured values published in publication PMC5896254.
Changes are numbered by the printed parent chain. Names and notes keep the numbering of the source.

What was measured:
[1] = biological target: WIPI2 (endogenous, HeLa); assay: GFP-TRAP pull-down, quantified immunoblot; conditions: HeLa cells starved for 1 hr; n = 3; parent: est. 0.10; read off a plot
[2] = biological target: RAB11A (endogenous, HeLa) (UniProt P62491); assay: GFP-TRAP pull-down, quantified immunoblot; conditions: HeLa cells starved for 2 hr; n = 5; parent: est. 1.0; read off a plot
[3] = biological target: T1, recombinant human HIS-RAB11A, P62491; assay: liposome sedimentation assay; conditions: chain shown with the change; in vitro; RAB11A-containing liposomes; n = 4; parent: est. 100; read off a plot
T1 chain: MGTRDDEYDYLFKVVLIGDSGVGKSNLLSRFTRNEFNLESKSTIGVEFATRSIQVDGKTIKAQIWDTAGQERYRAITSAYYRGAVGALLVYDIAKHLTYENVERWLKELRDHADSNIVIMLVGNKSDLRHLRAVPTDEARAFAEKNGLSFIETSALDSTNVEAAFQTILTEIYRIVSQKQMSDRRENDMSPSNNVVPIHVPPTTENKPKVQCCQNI

Molecule: GFP-RAB11A (from UniProt P62491) Q70L
- response [1]: 0.15 au

Molecule: GFP-RAB11A (from UniProt P62491) S25N
- response [1]: 0.045 au

Molecule: GFP-WIPI2 L115A; E116T
- response [2]: 0.42 au

Molecule: GFP-WIPI2 Y120F; I121E
- response [2]: 0.1 au

B1: WIPI2-FLAG WT R224T; R225T (protein)
chain: MNLASQSGEAGAGQLLFANFNQDNTSLAVGSKSGYKFFSLSSVDKLEQIYECTDTEDVCIVERLFSSSLVAIVSLKAPRKLKVCHFKKGTEICNYSYSNTILAVKLNRQRLIVCLEESLYIHNIRDMKVLHTIRETPPNPAGLCALSINNDNCYLAYPGSATIGEVQVFDTINLRAANMIPAHDSPLAALAFDASGTKLATASEKGTVIRVFSIPEGQKLFEFTTGVKRCVSICSLAFSMDGMFLSASSNTETVHIFKLETVKEKPPEEPTTWTGYFGKVLMASTSYLPSQVTEMFNQGRAFATVRLPFCGHKNICSLATIQKIPRLLVGAADGYLYMYNLDPQEGGECALMKQHRLDGSLETTNEILDSASHDCPLVTQTYGAAAGKGTYVPSSPTRLAYTDDLGAVGGACLEDEASALRLDEDSEHPPMILRTD
- percent of parent [3]: 92 % WT

B2: WIPI2-FLAG WT Y120F; I121E (protein)
chain: B1 chain with Y120F, I121E, T224R, T225R
- percent of parent [3]: 38 % WT

B3: WIPI2-FLAG WT L115A; E116T (protein)
chain: B1 chain with L115A, E116T, T224R, T225R
- percent of parent [3]: 43 % WT
